The source of these data is CN117321082A (APOCOR LTD, dated 2023).

Assay [1] concerns the target T1, 全长人KLRG1 (full-length human KLRG1 on stably transfected CHOK1 cells) (human, UniProt Q96E93 1-195).
T1 construct: whole, on cells; the cell assays used full-length protein; also called hKLRG1; CHOK1-hKLRG1
T1 sequence (looked up): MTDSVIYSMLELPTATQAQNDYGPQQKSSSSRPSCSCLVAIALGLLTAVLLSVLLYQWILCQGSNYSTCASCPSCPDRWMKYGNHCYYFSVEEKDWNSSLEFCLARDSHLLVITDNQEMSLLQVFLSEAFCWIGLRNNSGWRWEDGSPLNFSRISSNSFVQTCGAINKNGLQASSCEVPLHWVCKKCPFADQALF
The assay can be described thus: FACS on CHOK1 cells expressing full-length human KLRG1, detected with anti-human IgG-Alexa 488.

Assay [2] concerns the target T1, 全长人KLRG1 (full-length human KLRG1 on …). The assay can be described thus: FACS competition on CHOK1-hKLRG1 cells; competitor 0.3 uM human E-cadherin-ECD-FC-biotin, detected with streptavidin-Alexa 488.
For assay [3] the target is unchanged. The assay can be described thus: FACS competition on CHOK1-hKLRG1 cells; competitor 0.3 uM human E-cadherin-ECD-FC-biotin (Example 7).

B1: PA015 (antibody, human IgG1, kappa, V domains shown)
VH: QVTLRESGPALVKPTQTLTLTCTVSGFSLSTFGMGVGWIRQPPGKALEWLAHIWWDDDKWYELALKSRLTISKDTSKNQVVLTITNMDPVDTATYYCARVIYYGSRSAYYSMDYWGQGTTVTVSS
VL: DVVMTQTPLSLSVTPGQPASISCKSSQSIVHSNAHTYLEWYLQKPGQSPQLLIYKVSNRFSGVPDRFSGSGSGTDFTLKISRVEAEDVGVYYCFQGSHVPVTFGQGTKLEIKR
notes: also called PA015抗体; 抗KLRG1抗体
One may read the EC50 as the concentration giving half of the maximal effect. A lower EC50 goes with higher potency in that assay. By IC50 is commonly meant the concentration needed to halve the response being measured. A higher IC50 goes with weaker potency in that assay. In turn, B1 returned an EC50 in assay [1] of 1.33 nM. For the same molecule, the IC50 in assay [2] stood at 8.05 nM; in assay [3] it was 5.3 nM.
